Two proteins from paper PMC5306213, “Common Distribution of gad Operon in Lactobacillus brevis and its GadA Contributes to Efficient GABA Synthesis toward Cytosolic Near-Neutral pH” (Frontiers in Microbiology, 2017) can be followed below.

Substrate in data set [1]: N[C@@H](CCC(=O)O)C(=O)O
Nature of the data set: glutamate decarboxylation assay, Michaelis-Menten fit. The following applies: pH 4.8, 45 °C, sulfate buffer (0.8 M sodium sulfate, 50 mM sodium acetate), PLP, glutamate 0.9-36 mM. Type of data set: biochemical, Levilactobacillus brevis. The source says:
glutamate decarboxylation assay, Michaelis-Menten fit on Lb. brevis GadA (WT)

Substrate in data set [2]: N[C@@H](CCC(=O)O)C(=O)O
The data set is described as above. Type of data set: biochemical, Lactiplantibacillus plantarum. The conditions noted are these: pH 4.8, 60 °C, McIlvaine (citrate-phosphate) buffer, PLP, glutamate 0.9-36 mM. The text has this: glutamate decarboxylation assay, Michaelis-Menten fit on Lb. plantarum GadB

B1: Lb. brevis GadA (WT) (Levilactobacillus brevis ATCC 367) (protein)
chain: MNKNDQETQQMINNVDLEKTFLGSVEAGQSLPTNTLPDDPMAPDVAAQLVEHYRLNEAKANQNLATFCTTQMEPQADELMKNALNTNAIDKSEYPKTAAMENYCVSMIAHLWGIPDNEKIYDDFIGTSTVGSSEGCMLGGLALLHSWKHRAKAAGFDIEDLHSHKPNLVIMSGYQVVWEKFCTYWNVEMRQVPINGDQVSLDMDHVMDYVDENTIGIIGIEGITYTGSVDDIQTLDNLVTEYNKTATMPVRIHVDAAFGGLFAPFVDGFNPWDFRLKNVVSINVSGHKYGMVYPGLGWIVWRHNTADILPAEMRFQVPYLGKTVDSIAINFSHSGAHISAQYYNFIRFGLSGYKTIMQNVRKVSLKLTAALKTYGIFDILVDGSQLPINCWKLADDAPVGWTLYDLESELAKYGWQVPAYPLPKNRDDVTISRIVVRPSMTMTIADDFLDDLKLAIDGLNHTFGVTTTVDQDNKTTVRS
notes: recombinant in E. coli from pRSETA-SUMO with N-terminal His-SUMO tag (tag removal told only in supplement); native N-terminus MNKNDQET (from primer); tetramer per cited work
In general, Km refers to the concentration of substrate that gives half-maximal velocity. By Vmax is commonly meant the top rate of the reaction or transport when substrate is in excess. What is called kcat is the number of substrate molecules converted per active site and unit of time at saturation. A word on the kcat/Km: it is the turnover number divided by the Michaelis constant. As for B1, in data set [1], the Km was 26.95 ± 2.437 mM, the Vmax came out at 9.16 µmol/min/mg, the kcat is 8.17 ± 0.405 s⁻¹ and the kcat/Km was found to be 303 M⁻¹ s⁻¹.

B2: Lb. plantarum GadB (Lactiplantibacillus plantarum WCFS1) (protein)
chain: MAMLYGKHNHEAEEYLEPVFGAPSEQHDLPKYRLPKHSLSPREADRLVRDELLDEGNSRLNLATFCQTYMEPEAVELMKDTLAKNAIDKSEYPRTAEIENRCVNIIANLWHAPDDEHFTGTSTIGSSEACMLGGLAMKFAWRKRAQAAGLDLNAHRPNLVISAGYQVCWEKFCVYWDVDMHVVPMDEQHMALDVNHVLDYVDEYTIGIVGIMGITYTGQYDDLAALDKVVTHYNHQHPKLPVYIHVDAASGGFYTPFIEPQLIWDFRLANVVSINASGHKYGLVYPGVGWVVWRDRQFLPPELVFKVSYLGGELPTMAINFSHSAAQLIGQYYNFIRFGMDGYREIQTKTHDVARYLAAALDKVGEFKMINNGHQLPLICYQLASREDREWTLYDLSDRLLMNGWQVPTYPLPANLEQQVIQRIVVRADFGMNMAHDFMDDLTKAVHDLNHAHIVYHHDAAPKKYGFTH
notes: recombinant in E. coli from pET-28a(+), +GSHM at N-terminus (left after tag cleavage, details in supplement); start MAMLYGKH (from primer); about 54 kDa from kcat/Vmax; dimer per cited work
As for B2, in data set [2], the Km is listed as 20.02 ± 2.557 mM, the Vmax stood at 73.3 µmol/min/mg, the kcat was found to be 65.9 ± 4.2 s⁻¹ and the kcat/Km turned out to be 3290 M⁻¹ s⁻¹.
